Results from patent publication US20030124704A1 (YALE UNIVERSITY, published 2003).

Biological target: Alkaline phosphatase-hNogo-A(1055-1120) (human, UniProt P05187 23-511)
Test: AP-fusion ligand binding to COS-7 cells transfected with myc-mNgR3; expression checked by anti-myc staining and immunoblot
Excerpt: The mouse NgR3 cDNA was amplified by PCR from mouse adult brain cDNA, from the signal sequence to the stop codon, and ligated into the pSecTag2 vector such that the vector encodes a signal sequence followed by a myc tag followed by the mature mNgR3 sequence. This plasmid was transfected into COS07cells, and expression of a myc-tagged protein of the predicted size was verified by immunoblot analysis.

Alkaline phosphatase-hNogo-A(1055-1120), sequence (P05187 other isoform, or with tags, fused parts or gaps): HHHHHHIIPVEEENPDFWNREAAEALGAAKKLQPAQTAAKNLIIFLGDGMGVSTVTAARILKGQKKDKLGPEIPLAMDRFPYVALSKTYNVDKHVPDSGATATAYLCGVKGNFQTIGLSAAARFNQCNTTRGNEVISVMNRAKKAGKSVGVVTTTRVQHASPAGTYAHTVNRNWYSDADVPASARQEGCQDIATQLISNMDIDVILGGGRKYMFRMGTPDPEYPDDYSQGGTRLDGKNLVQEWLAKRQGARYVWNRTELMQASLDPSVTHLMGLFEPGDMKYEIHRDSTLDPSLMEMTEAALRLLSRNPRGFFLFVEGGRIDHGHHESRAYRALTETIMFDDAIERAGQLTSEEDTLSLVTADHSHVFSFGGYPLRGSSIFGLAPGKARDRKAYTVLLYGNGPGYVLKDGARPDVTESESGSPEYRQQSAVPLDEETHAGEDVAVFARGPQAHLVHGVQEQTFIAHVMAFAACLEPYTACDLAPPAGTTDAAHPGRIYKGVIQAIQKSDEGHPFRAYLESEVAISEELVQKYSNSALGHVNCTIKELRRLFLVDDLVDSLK

binding result: no binding
B1: myc epitope-tagged mouse NgR3 (mNgR3) expressed on COS-7 cells (receptor, not shown: small tags and cut ends)
chain: CPRDCVCYPAPMTVSCQAHNFAAIPEGIPEDSERIFLQNNRITFLQQGHFSPAMVTLWIYSNNITFIAPNTFEGFVHLEELDLGDNRQLRTLAPETFQGLVKLHALYLYKCGLSALPAGIFGGLHSLQYLYLQDNHIEYLQDDIFVDLVNLSHLFLHGNKLWSLGQGIFRGLVNLDRLLLHENQLQWVHHKAFHDLHRLTTLFLFNNSLTELQGDCLAPLVALEFLRLNGNAWDCGCRARSLWEWLRRFRGSSSAVPCATPELRQGQDLKLLRVEDFRNCTGPVSPHQIKSHTLTTSDRAARKEHHPSHGASRDKGHPHGHPPGSRSGYKKAGKNCTSHRNRNQISKVSSGKELTELQDYAPDYQHKFSFDIMPTARPKRKGKCARRTPIRAPSGVQQAS
notes: The cDNA was amplified from mouse adult brain; Any processing of the C-terminal GPI signal is not described; also called myc-NgR3
